Results taken from publication PMC8146883, “A New Thermophilic Ene-Reductase from the Filamentous Anoxygenic Phototrophic Bacterium Chloroflexus aggregans” (Microorganisms, 2021).

How the values were obtained:
Test in all cases: purified protein
Type in all cases: biochemical, Chloroflexus aggregans
Conditions in all cases: 100 μM NADPH, 50 mM Tris-HCl pH 8.0, 25 °C, 1% ethanol, 200 nM enzyme
purified protein [1] = substrate: O=C1C=CCCC1
purified protein [2] = substrate: CC1=CC(=O)CC(C)(C)C1=O
purified protein [3] = substrate: C=CC(=O)CCCCC

B1: CaOYE (Chloroflexus aggregans DSM 9485) (protein)
chain: MQPHLFTPLTIGSVTLRNRIGMSPMCQYSAVDGFPTDWHLMHLGARAAGGVGLIILEATAVSPEGRISPFDLGIWSDDHIAALSRIVKLIESLGAVAGIQLAHAGRKASVGRPWEGGKPIAPANGGWPVVGPTAEPFAPGYPTPIPLDAAGIARVVADFATATKRARAAGFRWIEIHAAHGYLLHNFLSPLGNDRNDEYGGDLRGRVRLLSEVTAAVRAEWPSDLPLAVRLSCSDWTPEGLTIADTVEVARMLREQGVDLIDCSSGGIAPGITIPVGEGYQVPFAAQVRREANIATAAVGLITRPEHADAIVRNGDADLVLLGRELLRDPHWPLRAARALGHDLAPPPQYLRAW
notes: full-length ORF in pET-28a(+) (NdeI/BamHI), N-terminal His6-tag, E. coli BL21(DE3); model visible Met1 to Trp354; monomer in solution, dimer in crystal
**Q.** What does the source list for B1?
**A.** Km (purified protein [1]): 5.520 ± 0.627 mM; kcat (purified protein [1]): 3.82 ± 0.176 s⁻¹; kcat/Km (purified protein [1]): 690 M⁻¹ s⁻¹; Km (purified protein [2]): 0.013 ± 0.002 mM; kcat (purified protein [2]): 2.27 ± 0.055 s⁻¹; kcat/Km (purified protein [2]): 175000 M⁻¹ s⁻¹; Km (purified protein [3]): 10.32 ± 1.438 mM; kcat (purified protein [3]): 12.1 ± 0.661 s⁻¹; kcat/Km (purified protein [3]): 1170 M⁻¹ s⁻¹
